{"source": "patent US20050214802A1", "about": "(Genentech, published 2005)", "molecules": {"B1": {"name": "MLBIR-Q (C-terminally truncated variant of ML-IAP-BIR) (protein, human, UniProt Q96CA5 63-172, looked up, not shown: small tags and cut ends)", "chain": "TEEEEEEGAGATLSRGPAFPGMGSEELRLASFYDWPLTAEVPPELLAAAGFFHTGHQDKVRCFFCYGGLQSWKRGDDPWTEHAKWFPSCQFLLRSKGRDFVHSVQETHSQ"}, "B2": {"name": "full-length ML-IAP with N-terminal His6-tag (protein, human, UniProt Q96CA5 1-298, looked up, not shown: small tags and cut ends)", "chain": "MGPKDSAKCLHRGPQPSHWAAGDGPTQERCGPRSLGSPVLGLDTCRAWDHVDGQILGQLRPLTEEEEEEGAGATLSRGPAFPGMGSEELRLASFYDWPLTAEVPPELLAAAGFFHTGHQDKVRCFFCYGGLQSWKRGDDPWTEHAKWFPSCQFLLRSKGRDFVHSVQETHSQLLGSWDPWEEPEDAAPVAPSVPASGYPELPTPRREVQSESAQEPGGVSPAEAQRAWWVLEPPGARDVEAQLRRLQEERTCKVCLDRAVSIVFVPCGHLVCAECAPGLQLCPICRAPVRSRVRTFLS"}, "B3": {"name": "Flag-tagged ML-IAP-BIR (expressed in 293T cells) (other, human, UniProt Q96CA5 63-179, looked up)", "chain": "TEEEEEEGAGATLSRGPAFPGMGSEELRLASFYDWPLTAEVPPELLAAAGFFHTGHQDKVRCFFCYGGLQSWKRGDDPWTEHAKWFPSCQFLLRSKGRDFVHSVQETHSQLLGSWDP", "notes": "domain: BIR; also called MLBIR; wild-type ML-IAP-BIR; not shown: Flag tag"}}, "key": {"[1]": {"biological_target": "ΔCARD human caspase 9 (lacking the first 138 residues) with Ala substitutions at residues 304 to 306 (human) (UniProt P55211)", "experiment": "Ki(app), inhibition of ΔCARD caspase-9 hydrolysis of Ac-LEHD-AFC; too low to measure accurately"}, "[2]": {"biological_target": "ΔCARD human caspase 9 (lacking the first 138 residues) with Ala substitutions at residues 304 to 306 (human) (UniProt P55211)", "experiment": "caspase-9 inhibition assay, ratio of Ki(app)"}, "[3]": {"biological_target": "ΔCARD human caspase 9 (lacking the first 138 residues) with Ala substitutions at residues 304 to 306 (human) (UniProt P55211)", "experiment": "Ki(app), inhibition of ΔCARD caspase-9 hydrolysis of Ac-LEHD-AFC"}, "[4]": {"biological_target": "ΔCARD human caspase 9 (lacking the first 138 residues) with Ala substitutions at residues 304 to 306 (human) (UniProt P55211)", "experiment": "Ki(app), caspase-9 inhibition; upper end tied by Table 7 to MLBIR-Q (4,600 nM)"}, "[5]": {"biological_target": "ΔCARD human caspase 9 (lacking the first 138 residues) with Ala substitutions at residues 304 to 306 (human) (UniProt P55211)", "experiment": "Ki(app), caspase-9 inhibition; lower end tied by Table 7 to full-length ML-IAP (3,200 nM)"}, "[6]": {"biological_target": "ΔCARD human caspase 9 (lacking the first 138 residues) with Ala substitutions at residues 304 to 306 (human) (UniProt P55211)", "experiment": "caspase-9 inhibition assay, ratio of Ki(app)", "remark": "listed apart in the source"}, "[7]": {"biological_target": "T1, caspase-9 zymogen precursor (overexpressed in 293T cells) (UniProt P55211 1-416)", "T1 sequence (looked up)": "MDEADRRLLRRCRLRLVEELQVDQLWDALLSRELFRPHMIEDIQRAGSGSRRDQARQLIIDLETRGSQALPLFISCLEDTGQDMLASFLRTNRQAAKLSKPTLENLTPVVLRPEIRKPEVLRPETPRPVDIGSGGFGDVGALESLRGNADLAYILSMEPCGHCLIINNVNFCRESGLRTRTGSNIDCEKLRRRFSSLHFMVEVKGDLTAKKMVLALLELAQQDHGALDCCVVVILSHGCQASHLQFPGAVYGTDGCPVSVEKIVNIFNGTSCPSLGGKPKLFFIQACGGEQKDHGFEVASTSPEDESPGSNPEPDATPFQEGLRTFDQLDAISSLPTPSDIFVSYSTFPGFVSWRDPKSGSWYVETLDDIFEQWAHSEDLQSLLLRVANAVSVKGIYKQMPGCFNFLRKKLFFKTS", "experiment": "co-immunoprecipitation (anti-Flag) from 293T lysates, Western blot with anti-caspase-9", "protocol": "293T cells were transiently transfected with caspase-9 and Flag-tagged BIR domain proteins or vector. After 40 h, cells were lysed in NP40 lysis buffer (120 mM Tris, 150 mM NaCl, 1% NP-40, 1 mM DTT and protease inhibitor cocktail) and lysates immunoprecipitated (IP) with anti-Flag antibody. Samples were then Western blotted with anti-caspase-9 and anti-Flag antibodies. […] When overexpressed, caspase-9 undergoes autocatalytic processing and it is the processed form that physically interacts with XIAP and ML-IAP BIR domains."}}, "data": [{"molecule": "MLXBIR3SG (ML-IAP chimera: ML-IAP-BIR framework with XIAP-BIR3 residues 336-348 in place of 160-179 and S150G)", "values": [{"measurement": "Ki", "setting": "[1]", "value": "< 1", "unit": "nM"}]}, {"molecule": "MLXBIR3 (ML-IAP-BIR with amino acids 160-179 replaced by amino acids 336-348 of XIAP-BIR3) (from UniProt Q96CA5 63-159; P98170 336-348)", "values": [{"measurement": "fold better at inhibiting caspase-9 than MLBIR-Q", "setting": "[2]", "value": 5, "unit": "fold"}, {"measurement": "fold less potent at inhibiting caspase-9 than XIAP-BIR3", "setting": "[2]", "value": 70, "unit": "fold"}, {"measurement": "Ki", "setting": "[3]", "value": 962, "unit": "nM"}]}, {"molecule": "XIAP-BIR3 (third BIR of XIAP, residues 252-348) (from UniProt P98170 252-348)", "values": [{"measurement": "Ki", "setting": "[3]", "value": 13, "unit": "nM"}]}, {"molecule": "B1", "values": [{"measurement": "Ki", "setting": "[3]", "value": 4600, "unit": "nM"}, {"measurement": "Ki", "setting": "[4]", "value": "3000 to 5000", "unit": "nM"}]}, {"molecule": "B2", "values": [{"measurement": "Ki", "setting": "[3]", "value": 3200, "unit": "nM"}, {"measurement": "Ki", "setting": "[5]", "value": "3000 to 5000", "unit": "nM"}, {"measurement": "fold lower potency for inhibition of caspase-9 relative to XIAP", "setting": "[6]", "value": 300, "unit": "fold"}]}, {"molecule": "B3", "values": [{"measurement": "binding result", "setting": "[7]", "value": "no binding"}]}]}
